Source: paper PMC9732821, “Neurotrophic Activity and Its Modulation by Zinc Ion of a Dimeric Peptide Mimicking the Brain-Derived Neurotrophic Factor N-Terminal Region” (ACS Chemical Neuroscience, 2022)

Assays:
[1] = target: TrkB receptor, endogenous in differentiated SH-SY5Y cells (human (endogenous in SH-SY5Y)) (UniProt Q16620); assay: immunostaining of cells or tissue; non-permeabilizing immunofluorescence of membrane-bound BDNF on differentiated SH-SY5Y cells; 1 h treatment with BDNF 150 ng/mL, d-bdnf 10 μM, or both
[2] = target: TrkB receptor, endogenous in differentiated SH-SY5Y cells (human (endogenous in SH-SY5Y)) (UniProt Q16620)
TrkB = details: synaptic cleft; cited from earlier work
Text: BDNF is the predominant NT in the adult brain and is widely distributed in the cortical areas, visual cortex, and hippocampus.[3] Activation of TrkB by BDNF initiates downstream signaling cascades mediated by Ras/ERK, PI3K/Akt, and PLC-γ.[4] After its activation, the BDNF–TrkB complex undergoes endocytosis, recycling, or degradation and crucially takes the axonal transport route to sustain neuron survival and differentiation.[5] Furthermore, BDNF/TrkB signaling regulates dendritic branching, the density of spines, and spine morphological specializations, acting both as the mediator and modulat ... || The modulation of the BDNF–TrkB signaling axis has been recently postulated as a drug target for the treatment of neurological diseases, including nerve injury, neurodegenerative diseases, and neuropsychiatric disorders.[15],[16] Unfortunately, the therapeutic use of BDNF, as that of other NTs, is challenging due to the uncontrolled side effects as well as their low bioavailability.[17] To overcome such limitations, the use of peptide fragments that can mimic specific domains of the NTs has been explored in the last few years.[18] The most investigated BDNF structural elements have been so far ...

Sequence of UniProt Q16620 (Q16620 32-822): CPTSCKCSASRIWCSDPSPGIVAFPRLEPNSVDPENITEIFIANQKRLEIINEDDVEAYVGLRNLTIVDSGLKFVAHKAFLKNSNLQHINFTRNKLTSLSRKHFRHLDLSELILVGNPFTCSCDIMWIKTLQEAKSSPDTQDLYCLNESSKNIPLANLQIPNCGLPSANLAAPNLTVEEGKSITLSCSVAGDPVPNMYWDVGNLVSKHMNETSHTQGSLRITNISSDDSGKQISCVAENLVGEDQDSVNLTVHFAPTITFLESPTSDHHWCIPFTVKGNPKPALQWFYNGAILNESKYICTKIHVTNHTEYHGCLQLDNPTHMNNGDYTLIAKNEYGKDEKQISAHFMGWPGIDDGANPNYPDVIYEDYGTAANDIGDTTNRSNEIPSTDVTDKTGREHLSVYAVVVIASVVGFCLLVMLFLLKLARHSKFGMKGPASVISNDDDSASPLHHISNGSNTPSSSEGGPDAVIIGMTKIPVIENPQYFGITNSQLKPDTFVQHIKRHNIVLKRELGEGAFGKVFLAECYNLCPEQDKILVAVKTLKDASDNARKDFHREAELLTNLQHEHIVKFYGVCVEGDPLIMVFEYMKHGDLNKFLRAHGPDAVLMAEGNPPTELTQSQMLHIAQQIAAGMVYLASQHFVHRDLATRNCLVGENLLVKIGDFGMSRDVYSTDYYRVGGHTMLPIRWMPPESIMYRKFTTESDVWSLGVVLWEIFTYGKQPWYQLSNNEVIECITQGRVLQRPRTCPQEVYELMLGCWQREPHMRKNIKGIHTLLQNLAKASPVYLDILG

Compound | increase of the fluorescent signal of membrane-bound BDNF on the cells [1] [%] | EC50 of ERK phosphorylation, dose-response in differentiated SH-SY5Y cells (referred to the monomer form) [2] [nM] | maximal effect (Emax) of ERK phosphorylation, dose-response in differentiated SH-SY5Y cells [2] | TrkB activation (TrkB)
recombinant human mature BDNF (hBDNF) (ligand) | 40 | 0.69 | 237 | 
[Zn+2] [zinc] |  |  |  | prompt post-synaptic, BDNF-independent TrkB activation
